Earlier results in publication PMC5529358.

How the values were obtained:
[1] = target: insulin receptor isoform A isoform A (Homo sapiens) (UniProt P06213)
[2] = target: insulin receptor isoform B isoform B (Homo sapiens) (UniProt P06213)

Chain of insulin (P01308 90-110): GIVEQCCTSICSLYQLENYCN

Kd [1] | Kd [2] | Substance
120 nM |  | IGF-1 (from UniProt P05019)
 | 1.4 nM | insulin (from UniProt P01308)
